Values belong to the binder of their own block, whether it stands above or below them.
Legend:
[1] = biological target: Extracellular domain (ECD) of ROR1 fused to human Fc region (UniProt Q01973); experiment: ROR1-Fc affinity of the construct's binding domain; method not given
ROR1-His [2] = biological target: T1, ROR1-His (UniProt Q01973 30-403, limits assumed); experiment: ROR1-His affinity of the construct's binding domain; method not given; ROR1-His column, not ROR1-Fc (2.31E-08)
T1 construct: The construct is described nowhere; not shown: His tag

[3] = biological target: Extracellular domain (ECD) of ROR1 fused to human Fc region (UniProt Q01973); experiment: SPR, Biacore 3000; ROR1 ECD-human Fc on CM5 chip, antibody in solution; ROR1 ECD-human Fc on the chip per paragraph 451; same number stands under ROR1-His in Table 9
ROR1-His [4] = biological target: T1, ROR1-His; experiment: ROR1-His affinity of the construct's binding domain; method not given

Sequence of Extracellular domain (ECD) of ROR1 fused to human Fc region (Q01973 30-406 limits assumed): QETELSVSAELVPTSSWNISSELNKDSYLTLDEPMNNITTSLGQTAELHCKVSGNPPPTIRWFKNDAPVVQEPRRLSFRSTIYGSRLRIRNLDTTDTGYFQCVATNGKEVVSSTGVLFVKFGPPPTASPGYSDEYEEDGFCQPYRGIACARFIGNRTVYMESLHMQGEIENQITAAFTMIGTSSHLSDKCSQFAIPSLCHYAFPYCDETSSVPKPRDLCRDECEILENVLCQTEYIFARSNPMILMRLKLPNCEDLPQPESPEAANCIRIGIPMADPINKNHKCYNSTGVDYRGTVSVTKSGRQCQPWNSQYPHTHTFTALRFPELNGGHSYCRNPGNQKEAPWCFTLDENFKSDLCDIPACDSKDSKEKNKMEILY
T1 sequence (Q01973 30-403 limits assumed): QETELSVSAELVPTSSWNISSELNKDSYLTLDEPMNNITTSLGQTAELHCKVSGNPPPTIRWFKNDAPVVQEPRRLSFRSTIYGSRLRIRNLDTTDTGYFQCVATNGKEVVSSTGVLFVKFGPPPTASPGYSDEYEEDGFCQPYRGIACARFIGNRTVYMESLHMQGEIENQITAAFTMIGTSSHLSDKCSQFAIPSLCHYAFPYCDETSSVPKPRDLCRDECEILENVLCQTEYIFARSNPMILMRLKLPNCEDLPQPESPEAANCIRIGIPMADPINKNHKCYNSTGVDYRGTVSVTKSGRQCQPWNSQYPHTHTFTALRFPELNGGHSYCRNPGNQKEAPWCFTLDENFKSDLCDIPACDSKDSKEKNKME

Kd [1]: 23.1 nM
Kd (ROR1-His [2]): 70.7 nM
B1: Murine ROR1_v2 binding domain (VL and VH of MurineROR1_v2 (VL-VH)) (antibody, V domains shown)
VH: EVKLVESGGGLVKPGGSLKLSCAASGFTFSSYAMSWVRQIPEKRLEWVASISRGGTTYYPDSVKGRFTISRDNVRNILYLQMSSLRSEDTAMYYCGRYDYDGYYAMDYWGQGTSVTVSS
VL: DVQITQSPSSLYASLGERVTITCKASPDINSYLSWFQQKPGKSPKTLIYRANRLVDGVPSRFSGGGSGQDYSLTINSLEYEDMGIYYCLQYDEFPYTFGGGTKLEMK
notes: also called Murine ROR1_v2 VH; murine ROR1 scFv

Kd [3]: 0.355 nM
Kd [1]: 0.193 nM
Kd (ROR1-His [4]): 0.355 nM
B2: Hum ROR1_05VH_(G4S)3x_VL_14 (antibody, mouse IgG1, V domains shown)
VH: EVQLVESGGGLVQPGGSLRLSCAASGFTFSSYAMSWVRQAPGKGLEWVSSISRGGTTYYPDSVKGRFTISRDNSKNTLYLQMNSLRAEDTAVYYCGRYDYDGYYAMDYWGQGTLVTVSS
VL: DIQMTQSPSSLSASVGDRVTITCKASPDINSYLNWYQQKPGKAPKLLIYRANRLVDGVPSRFSGSGSGTDYTLTISSLQPEDFATYYCLQYDEFPYTFGAGTKVEIK
notes: The name reads as an scFv with a (G4S)3 linker; The method text says variable regions were fused to mouse constant regions (chimeric mouse IgG1); VH/VL are tied by the numbers in the name

Source: patent publication US20260035432A1 (PRECIGEN, published 2026)
